In patent US20230080534A1 (SHANGHAI BIOTROY BIOTECHNIQUE, published 2023):
No end group written: not given here.

T1: human CD27 (HA-tagged, expressed in HEK293 cells) (human, UniProt P26842 20-260, limits assumed)
T1 construct: Plasmid printed as 'pcDNA3-HA-CD2'; not shown: HA tag
T1 sequence (looked up): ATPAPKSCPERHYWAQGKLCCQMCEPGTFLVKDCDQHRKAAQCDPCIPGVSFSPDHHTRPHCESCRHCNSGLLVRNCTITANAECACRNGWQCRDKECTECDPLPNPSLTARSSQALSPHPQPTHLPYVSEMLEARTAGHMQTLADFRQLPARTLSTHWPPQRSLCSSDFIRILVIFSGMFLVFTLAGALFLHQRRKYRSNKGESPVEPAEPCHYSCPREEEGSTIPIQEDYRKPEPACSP


Target: T1, human CD27 (HA-tagged, expressed in …)
Test: co-immunoprecipitation, HEK293 co-transfection
Description: In co-immunoprecipitation experiment, cells were lysed in IP buffer (Thermo Scientific) and Roche complete protease inhibitor for 10 minutes, followed by the addition of benzonase (sigma) for 25 minutes at room temperature. The lysate was then centrifuged at 15,000 rpm at 4° C. to remove the precipitate. The supernatant was then incubated with primary antibody slowly rotated overnight at 4° C., followed by the addition of protein A or protein G dynabeads and incubated at 4° C. for 2 hours, washed for 4 times in PBST (PBS with 0.01% Tween 20), eluted with 50 mM DTT in SDS sample buffer for 10 minutes at 100° C., separated with SDS, and immunoblotted as previously described.
To further confirm which part of SEMG-2 binds to CD27, fragments of SEMG2 protein were designed. The amino acid sequence of full-length SEMG2 protein (SEQ ID NO:1) was divided into 6 segments of sequences, fused with GFP and named as SEMG2-P1, SEMG2-P2, SEMG2-P3, SEMG2-P4, SEMG2-P5 and SEMG2-P6 (See Table 1 for specific sequences, with corresponding abbreviation as P1-P6 respectively). Plasmids expressing these amino acid sequences were co-transfected with CD27 into HEK293 cells, and co-immunoprecipitation experiments were performed to identify the main fragment of SEMG2 that binds to CD27.

Row | binding result | Binder
1 | no binding | SEMG2-P2 fused with GFP (other, not shown: GFP fusion partner) QNPSQDQGNSPSGKGLSSQCSNTEKRLWVHGLSKEQASASGAQKGRTQGGSQSSYVLQTEELVVNKQQRETKNSHQNKGHYQNVVDVREEHSSKLQTSLHPAHQDRLQHGPKDIFTTQDELLVYNKNQHQTKNLSQDQEHGR
2 | no binding | SEMG2-P3 fused with GFP (other, not shown: GFP fusion partner) KAHKISYPSSRTEERQLHHGEKSVQKDVSKGSISIQTEEKIHGKSQNQVTIHSQDQEHGHKENKISYQSSSTEERHLNCGEKGIQKGVSKGSISIQTEEQIHGKSQNQVRIPSQAQ
3 | no binding | SEMG2-P4 fused with GFP (other, not shown: GFP fusion partner) EYGHKENKISYQSSSTEERRLNSGEKDVQKGVSKGSISIQTEEKIHGKSQNQVTIPSQDQEHGHKENKMSYQSSSTEERRLNYGGKSTQKDVSQSSIS
4 | no binding | EQKGRYKQESSESHNIVITEHEVAQDDHLTQQYNEDRNPIST (other, also: fused to GFP, variant, linker and side of fusion not given here, not shown: GFP fusion partner) [SEMG2-P6 fused with GFP]
